From US20120178908A1 (Novo Nordisk, published 2012)
* marks the point of attachment. Biotin = O=C1N[C@H]2[C@H](CS[C@H]2CCCCC(=O)*)N1; AEEA = NCCOCCOCC(=O)O

Experiments:
hTLT-1 ECD-HPC4 M91A = molecular target: T1, hTLT-1 ECD-HPC4 M91A (human, UniProt Q86YW5 16-162); assay: SPR (ProteOn), mAb captured by anti-hFc, 100 nM mutant
T1 construct: As m27; also called Ala mutant 24
T1 chain: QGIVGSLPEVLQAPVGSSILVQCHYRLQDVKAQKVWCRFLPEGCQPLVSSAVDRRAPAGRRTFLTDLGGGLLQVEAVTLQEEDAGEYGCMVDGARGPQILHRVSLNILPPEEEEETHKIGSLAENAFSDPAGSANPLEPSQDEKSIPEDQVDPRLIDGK
Experimental: Anti-hFc Polyclonal antibody was immobilized onto separate flow cells of a GLM sensor chip using a 1:1 mixture of 0.4 M EDAC [1-ethyl-3-(3-dimethylaminopropyl) carbodiimide hydrochloride] and 0.1 M Sulfo-NHS [N-hydroxysulfosuccinimide]. Each anti-body was diluted in 10 mM sodium acetate pH 5.0 to a concentration of […], and was immobilized to an individual flow cell at 30 μl/min for 240s. The antibodies were immobilized to flow cells A1-A6 (horizontal direction). After immobilization, the active sites on the flow cell were blocked with 1 M ethanolamine. The final immobilization level of capture antibody typically ranged from approximately 9,000 to 10,000 RU in one experiment. Capture of the anti-TLT1 antibodies 0197-0000-0023, 0197-0000-0051, 0197-0000-0061 and 0197-0000-0062 was conducted by diluting to […] into HBS-EP buffer (10 mM HEPES, 150 mM NaCl, 3 mM EDTA, 0.05% surfactant P20, pH 7.4) and injected at 30 μl/min for 60s in vertical direction, creating interspot reference points with only anti-human Fc antibodies. The final capture level of test antibodies typically ranged from approximately 200 to 300 RU in one experiment. […] Each hTLT-1 ECD-HPC4 protein was diluted to 100 nM, based on the calculated average Mw, into HBS-EP buffer and injected at 30 μl/min for 240s. […]

[1] = molecular target: T2, biotinylated 20mer TLT-1 stalk peptide 12 (N-terminal biotin via 8-amino-3,6-dioxaoctanoic acid (bio-Oeg)); assay: peptide-walk ELISA, biotin-peptide on streptavidin plate, triple determination
T2 construct: also called well A12
T2 peptide: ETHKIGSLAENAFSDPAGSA
Experimental: (§1) Epitope mapping by peptide walk. The peptide walking ELISA defined the minimal binding region of the peptide. This was established by coating biotinylated peptides with one residue frameshift in the stalk region of TLT-1 in streptavidin plates followed by binding of the antibody of interest (mAb 0061). A secondary antibody was added for detection and binding was measured at 450 nm. Positive control: binding to biotinylated TLT-1.
(§2) 1) 20mer peptide mapping with one residue frameshift (20,1) (see materials) 2) 16mer peptide mapping with one residue frameshift (16,1) (see materials) [0687] 1. Plate was prre-washed 3× with 250 μl wash buffer [0688] 2. 100 μl Biotinylated peptide-solution was added (from Masterplate 10000× diluted, one peptide pr well) [0689] 3. Incubated at RT for 1 hour or +5° C. over night [0690] 4. Washed 3× with wash buffer [0691] 5. 100 μl Primary antibody was added (dilution see above) [0692] 6. Incubated at RT for 1 hour [0693] 7. Washed 3× with wash buffer [0694] 8. 100 μl Secondary antibody was added (dilution see above) [0695] 9. Incubated at RT for 1 hour [0696] 10. Washed 3× with wash buffer [0697] 11. 100 μl Substrate/Develop buffer was added (Reaction time 3 min) [0698] 12. 100 μl 2M H3PO4 was added [0699] 13. Endpoint was read at 450 nm

[2] = molecular target: T3, biotinylated 20mer TLT-1 stalk peptide 5 (N-terminal biotin via 8-amino-3,6-dioxaoctanoic acid (bio-Oeg)); assay: as above
T3 construct: also called well A 5
T3 peptide: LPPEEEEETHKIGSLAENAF
Experimental: as §1, §2

[3] = molecular target: T4, biotinylated 16mer hTLT-1 stalk peptide 42 (SMILES …); assay: as above
T4 construct: also called well D 6
T4 peptide: {Biotin-AEEA}-KIGSLAENAFSDPAGS-NH2
Experimental: as §1, §2

B1: mAb 0061 HC2; LC2 (antibody, V domains shown)
VH: EVKLLESGGGLVQPGGSLKLSCAASGFDFSRYWMTWVRQAPGKGLEWIGEINPDSSTINYNPSLKDKFIISRDNAKNTLYLQMSEVRSEDTALYYCASGVFTSWGQGTLVTVSA
VL: DVVMTQTPLSLPVSLGDQASISCRSSQSLVHRNGNTYFHWALQKPGQSPKLLIYKVSNRFSGVPDRFSGSGSGTDFTLKISRVEAEDLGVYFCSQSTHVPYTFGGGTKLEIKR
notes: also called 0197-0000-0061; 0012HC.T60N + 0012LC.C36A
hTLT-1 ECD-HPC4 M91A
  binding result: binds
[1]
  absorbance at 450 nm: > 3 A450
[2]
  absorbance at 450 nm: > 3 A450
[3]
  absorbance at 450 nm: > 3 A450
